Reference: publication PMC2882879 (Biochemistry, 2010)

B1: recombinant mouse Mesd protein (natural protein, UniProt Q9ERE7 30-224, looked up)
chain: ADTPGEATPPPRKKKDIRDYNDADMARLLEQWEKDDDIEEGDLPEHKRPSAPIDFSKLDPGKPESILKMTKKGKTLMMFVTVSGNPTEKETEEITSLWQGSLFNANYDVQRFIVGSDRAIFMLRDGSYAWEIKDFLVSQDRCAEVTLEGQMYPGKGGGSKEKNKTKPEKAKKKEGDPKPRASKEDNRAGSRREDL
modifications: 125I-iodinated (IODO-GEN method) where used as radioligand; unlabelled where used as competitor

How the values were obtained:
LRP6 (Homo sapiens) = LRP6 (Homo sapiens) (UniProt O75581); test: solid phase enzyme-linked binding assay; conditions: cited from earlier work
LRP6 (Homo sapiens), sequence (O75581 20-1370): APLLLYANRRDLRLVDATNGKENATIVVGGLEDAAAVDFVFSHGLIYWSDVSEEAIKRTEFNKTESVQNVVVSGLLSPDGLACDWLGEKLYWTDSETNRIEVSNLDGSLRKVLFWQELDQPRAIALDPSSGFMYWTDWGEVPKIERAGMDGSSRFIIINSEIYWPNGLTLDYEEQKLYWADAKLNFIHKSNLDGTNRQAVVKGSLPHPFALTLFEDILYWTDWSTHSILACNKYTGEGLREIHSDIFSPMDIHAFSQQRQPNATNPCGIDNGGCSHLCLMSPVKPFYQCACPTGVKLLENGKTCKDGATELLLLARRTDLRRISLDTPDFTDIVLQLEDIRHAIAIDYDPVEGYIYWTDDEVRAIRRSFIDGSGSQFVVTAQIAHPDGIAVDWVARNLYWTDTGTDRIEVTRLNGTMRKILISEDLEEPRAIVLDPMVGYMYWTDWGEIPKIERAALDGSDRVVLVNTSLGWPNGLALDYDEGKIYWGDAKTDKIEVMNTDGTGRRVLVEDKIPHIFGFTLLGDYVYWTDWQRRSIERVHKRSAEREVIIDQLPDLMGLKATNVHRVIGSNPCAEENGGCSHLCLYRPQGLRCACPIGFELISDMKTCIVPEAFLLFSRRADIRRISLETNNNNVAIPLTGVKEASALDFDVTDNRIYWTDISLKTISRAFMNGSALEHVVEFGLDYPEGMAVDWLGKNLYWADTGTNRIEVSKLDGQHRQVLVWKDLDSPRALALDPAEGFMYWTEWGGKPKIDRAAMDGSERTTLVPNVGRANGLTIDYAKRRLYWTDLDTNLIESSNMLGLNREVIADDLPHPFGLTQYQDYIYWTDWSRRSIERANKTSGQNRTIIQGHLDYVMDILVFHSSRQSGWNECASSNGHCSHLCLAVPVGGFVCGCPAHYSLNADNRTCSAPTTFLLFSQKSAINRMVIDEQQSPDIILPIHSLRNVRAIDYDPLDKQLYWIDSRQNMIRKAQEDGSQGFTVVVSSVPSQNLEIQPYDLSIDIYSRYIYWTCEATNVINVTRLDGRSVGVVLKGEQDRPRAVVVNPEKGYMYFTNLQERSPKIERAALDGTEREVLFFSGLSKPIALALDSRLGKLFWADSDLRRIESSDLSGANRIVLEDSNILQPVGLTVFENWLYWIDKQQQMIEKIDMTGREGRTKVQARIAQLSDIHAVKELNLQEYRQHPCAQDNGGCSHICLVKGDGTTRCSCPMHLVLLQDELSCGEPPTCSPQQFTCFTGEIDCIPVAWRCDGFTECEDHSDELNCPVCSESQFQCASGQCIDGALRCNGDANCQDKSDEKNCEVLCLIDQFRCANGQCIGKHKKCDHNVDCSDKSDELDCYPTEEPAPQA

[1] = target: human low-density lipoprotein receptor-related protein-5 on stably transfected ldl-7 (LDLR-deficient CHO) … (human, UniProt O75197 32-1615); test: radioligand binding
human low-density lipoprotein receptor-related protein-5 on stably transfected ldl-7 (LDLR-deficient CHO) …, sequence (O75197 32-1615): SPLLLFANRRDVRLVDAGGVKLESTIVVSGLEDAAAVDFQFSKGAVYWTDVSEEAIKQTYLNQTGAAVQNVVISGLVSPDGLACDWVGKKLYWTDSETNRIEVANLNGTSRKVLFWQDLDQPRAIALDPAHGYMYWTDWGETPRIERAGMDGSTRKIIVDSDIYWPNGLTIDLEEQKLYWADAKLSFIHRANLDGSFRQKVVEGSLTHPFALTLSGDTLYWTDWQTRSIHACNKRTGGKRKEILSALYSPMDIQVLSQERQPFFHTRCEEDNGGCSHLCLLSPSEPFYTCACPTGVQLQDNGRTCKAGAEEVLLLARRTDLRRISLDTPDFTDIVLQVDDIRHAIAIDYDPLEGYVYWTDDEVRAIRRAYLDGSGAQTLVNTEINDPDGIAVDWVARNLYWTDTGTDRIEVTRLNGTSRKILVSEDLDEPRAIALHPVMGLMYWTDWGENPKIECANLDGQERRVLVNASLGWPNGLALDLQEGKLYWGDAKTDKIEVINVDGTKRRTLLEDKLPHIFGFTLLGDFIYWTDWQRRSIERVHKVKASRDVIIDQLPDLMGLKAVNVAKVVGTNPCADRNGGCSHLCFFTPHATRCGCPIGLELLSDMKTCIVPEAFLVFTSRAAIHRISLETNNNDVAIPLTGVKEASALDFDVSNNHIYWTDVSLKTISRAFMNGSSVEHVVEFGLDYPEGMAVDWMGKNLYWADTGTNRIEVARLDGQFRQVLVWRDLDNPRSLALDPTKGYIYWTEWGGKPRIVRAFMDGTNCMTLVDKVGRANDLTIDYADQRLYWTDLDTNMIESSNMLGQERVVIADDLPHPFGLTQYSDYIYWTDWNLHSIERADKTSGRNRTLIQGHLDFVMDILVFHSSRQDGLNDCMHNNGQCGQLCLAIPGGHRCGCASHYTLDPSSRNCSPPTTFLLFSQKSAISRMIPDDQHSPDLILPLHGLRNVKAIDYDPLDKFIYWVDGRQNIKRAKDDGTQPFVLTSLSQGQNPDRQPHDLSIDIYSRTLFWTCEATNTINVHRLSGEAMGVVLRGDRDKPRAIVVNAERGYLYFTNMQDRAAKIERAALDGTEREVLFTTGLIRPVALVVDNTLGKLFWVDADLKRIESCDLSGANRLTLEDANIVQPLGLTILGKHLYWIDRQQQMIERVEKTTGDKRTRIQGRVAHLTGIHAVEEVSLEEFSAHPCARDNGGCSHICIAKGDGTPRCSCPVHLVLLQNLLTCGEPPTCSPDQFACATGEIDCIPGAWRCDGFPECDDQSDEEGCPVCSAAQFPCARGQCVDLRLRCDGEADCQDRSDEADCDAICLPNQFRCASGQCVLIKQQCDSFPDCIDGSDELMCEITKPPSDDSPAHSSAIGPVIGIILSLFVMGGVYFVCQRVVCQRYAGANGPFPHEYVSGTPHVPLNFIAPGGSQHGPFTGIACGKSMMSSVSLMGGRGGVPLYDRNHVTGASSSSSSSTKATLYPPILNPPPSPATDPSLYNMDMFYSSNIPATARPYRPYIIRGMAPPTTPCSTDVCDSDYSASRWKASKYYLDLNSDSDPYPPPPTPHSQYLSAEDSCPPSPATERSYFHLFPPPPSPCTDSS

Molecule | Kd (LRP6 (Homo sapiens)) [nM] | Kd [1] [nM]
Rspo1 (from UniProt Q2MKA7) | 1.2 | –
B1 | – | 3.3
